Measurements as given in patent CN116675768A (WUHAN ABCLONAL INC, dated 2023).

T1: 重组人NEFL蛋白 (human, UniProt P07196 400-543)
T1 construct: Expressed in E. coli Rosetta(DE3) from the vector pET-28a-sumo and purified on a Ni column; also called 人轻肽神经细丝蛋白(NEFL); 神经丝轻链
T1 sequence: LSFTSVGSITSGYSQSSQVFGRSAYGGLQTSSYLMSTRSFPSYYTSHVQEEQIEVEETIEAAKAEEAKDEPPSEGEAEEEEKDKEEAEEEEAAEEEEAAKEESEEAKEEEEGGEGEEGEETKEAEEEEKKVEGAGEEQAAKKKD


Molecular target: T1, 重组人NEFL蛋白
Experiment: BLI (Gator); antibody 2 μg/mL, recombinant human NEFL 150 nM and 75 nM

Row | Kd [nM] | koff [s⁻¹] | kon [M⁻¹ s⁻¹] | Binder
1 | 2.03 | 0.000504 | 248000 | 兔单克隆抗体1H8 (antibody, V domains shown, also called 抗人NEFL蛋白的兔单克隆抗体1H8; 捕获抗体) VH: QSLEESGGRLVTPGTPLTLTCAVSGIDLSRYGIDWVRQAPGKGLEWIGTVSAGGDSWYASWAKGRFTISKTSSTTVDLEVTSPTTEDTATYFCAKGATLNLWGQGTLVTVSS VL: DPVLTQTPSSTSAAVGGTVTINCQSSQNVYGNNWLAWYQKKPGQSPKLLIISASSLPSGVPSRFKGSGSGTQFTLTISDLECDDAATYYCAGGYSGYIYTFGGGTEVVVKG
2 | 3.2 | 0.00043 | 134000 | 兔单克隆抗体2G10 (antibody, V domains shown, also called 抗人NEFL蛋白的兔单克隆抗体2G10; 2G10-biotin) VH: QSLEESGGRLVTPGTRLTLTCTVSGFSLGRYAMGWVRQAPGKGLEWIGIINSYGTTYYASWAKGRFTISKTSTTVDLKITSPTTEDTATYFCARDGYEDYGDYYNAFDPWGPGTLVTVSS VL: DVVMTQTPASVSEPVGGTVTIKCQASQSIGVTLAWYQQKPGQPPKLLIYKASNLASGVSSRFKGSRSGTEYTLTISDLECADAATYYCQCTWYGPSFVGAFGGGTEVVVKG
